Results published in article PMC2408616, “Modular Organization and Combinatorial Energetics of Proline–Tyrosine Nuclear Localization Signals” (PLoS Biology, 2008).
Positions count from the first letter of the chain named. Numbers in names are those of the source. Where two headings read alike, the source gives them in different places.

What was measured:
Kap104p [1] = target: Kap104p (UniProt P38217); experiment: ITC
Kap104p [2] = target: T1, Kap104p (yeast (S. cerevisiae), UniProt P38217 1-918); experiment: pull-down; ~30 μg Kap104p added to ~10 μg GST protein immobilized on 20 μl glutathione sepharose; washes with TB buffer (20 mM HEPES pH 7.3, 110 mM KAc, 2 mM MgAc, 1 mM EGTA, 2 mM DTT, 20% glycerol); second incubation with buffer or RanGTP (5-fold molar excess); SDS-PAGE, Coomassie; settings: both partners purified
T1 construct: Kap104p, yeast homolog of Kapβ2; gene a gift from J. Aitchison, subcloned into pGEX-Tev; also called yeast Karyopherin β2 homolog; source: E. coli Rosetta(DE3)pLysS, purified (glutathione sepharose, TEV cleavage, anion exchange, gel filtration)
T1 sequence (looked up): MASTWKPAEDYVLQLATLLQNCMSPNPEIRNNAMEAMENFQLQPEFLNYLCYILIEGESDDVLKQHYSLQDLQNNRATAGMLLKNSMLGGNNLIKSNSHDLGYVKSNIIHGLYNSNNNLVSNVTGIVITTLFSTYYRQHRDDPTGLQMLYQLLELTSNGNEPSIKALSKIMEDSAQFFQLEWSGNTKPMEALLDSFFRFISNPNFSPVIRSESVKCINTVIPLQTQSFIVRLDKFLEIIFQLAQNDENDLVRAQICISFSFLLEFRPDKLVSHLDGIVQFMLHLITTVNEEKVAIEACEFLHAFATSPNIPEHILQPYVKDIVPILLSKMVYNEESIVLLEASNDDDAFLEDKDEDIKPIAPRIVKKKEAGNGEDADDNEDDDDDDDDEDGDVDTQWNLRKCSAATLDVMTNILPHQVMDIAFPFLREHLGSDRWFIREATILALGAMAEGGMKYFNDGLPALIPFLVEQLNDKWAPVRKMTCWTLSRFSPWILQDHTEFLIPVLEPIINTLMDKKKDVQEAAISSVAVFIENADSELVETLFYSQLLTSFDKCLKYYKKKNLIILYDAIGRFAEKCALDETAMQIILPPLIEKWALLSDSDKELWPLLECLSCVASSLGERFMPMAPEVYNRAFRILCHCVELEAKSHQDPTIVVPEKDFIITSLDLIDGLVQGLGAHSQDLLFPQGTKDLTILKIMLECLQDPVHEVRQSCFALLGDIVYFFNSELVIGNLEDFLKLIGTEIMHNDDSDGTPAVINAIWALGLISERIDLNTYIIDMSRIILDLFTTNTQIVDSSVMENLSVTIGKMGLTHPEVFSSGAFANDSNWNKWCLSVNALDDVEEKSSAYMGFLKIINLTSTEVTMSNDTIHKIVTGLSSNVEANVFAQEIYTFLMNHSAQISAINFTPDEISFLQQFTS

Kap104p [3] = target: T2, Kap104p (yeast (S. cerevisiae), UniProt P38217 1-918); experiment: ITC
T2 chain: T1 sequence (looked up)

Kap104p, P38217 [4] = target: T3, Kap104p, P38217; experiment: ITC; set-up: other: TΔS: unit not given here; settings: for Kd / other: TΔS / dG / other: ΔH: chain shown with the change;; for Kd: parent: 37 ± 20; for ddG / ratio to parent: chain shown with the change; for other: TΔS: parent: -1.3 ± 0.6; for dG: parent: -10.0 ± 0.3; for other: ΔH: parent: -11.3 ± 0.5
T3 chain: T1 sequence (looked up)

Kap104p [5] = target: T1, Kap104p; experiment: ITC; 90–350 μM MBP-NLS titrated into 9–35 μM Kap104p in the cell; 20 °C; 20 mM Tris pH 7.5, 100 mM NaCl, 2 mM β-mercaptoethanol, 10% glycerol; 35 injections of 8 μl; single-site model; settings: both partners purified
Kap104p, P38217 [6] = target: T3, Kap104p, P38217; experiment: ITC
Kap104p [7] = target: T2, Kap104p; experiment: ITC

Molecule: MBP–Hrp1p NLS (from UniProt Q99383) R512A; 524RR525/AA
- ddG (Kap104p [1]): 0.1 kcal/mol
- ratio to parent (Kap104p [1]): 1.4
- other: TΔS (Kap104p [1]; parent: 0.09 ± 0.7): 0.06 kcal/mol
- other: ΔH (Kap104p [1]; parent: -10.0 ± 0.5): -9.9 kcal/mol
- dG (Kap104p [1]; parent: -10.1 ± 0.3): -9.9 kcal/mol

B1: GST–Nab2p, full-length (natural protein, S. cerevisiae, UniProt P32505 1-525, looked up)
chain: MSQEQYTENLKVIVAEKLAGIPNFNEDIKYVAEYIVLLIVNGGTVESVVDELASLFDSVSRDTLANVVQTAFFALEALQQGESAENIVSKIRMMNAQSLGQSDIAQQQQQQQQQQQPDIAQQQPQQQPQQQPQQQPQQQPQQQPQQQPQQQPQQQPQLQPLQPQLGTQNAMQTDAPATPSPISAFSGVVNAAAPPQFAPVDNSQRFTQRGGGAVGKNRRGGRGGNRGGRNNNSTRFNPLAKALGMAGESNMNFTPTKKEGRCRLFPHCPLGRSCPHAHPTKVCNEYPNCPKPPGTCEFLHPNEDEELMKEMERTREEFQKRKADLLAAKRKPVQTGIVLCKFGALCSNPSCPFGHPTPANEDAKVIDLMWCDKNLTCDNPECRKAHSSLSKIKEVKPISQKKAAPPPVEKSLEQCKFGTHCTNKRCKYRHARSHIMCREGANCTRIDCLFGHPINEDCRFGVNCKNIYCLFRHPPGRVLPEKKGAAPNSNVPTNERPFALPENAIIENAPPQTSFTHQEQDTEMN
notes: Nab2p, S. cerevisiae; also called full-length Nab2p; source: E. coli BL21(DE3), immobilized on glutathione sepharose
- binding result (Kap104p [2]): binds

B2: GST–Hrp1p, full-length (natural protein, S. cerevisiae, UniProt Q99383 1-534, looked up)
chain: MSSDEEDFNDIYGDDKPTTTEEVKKEEEQNKAGSGTSQLDQLAALQALSSSLNKLNNPNSNNSSSNNSNQDTSSSKQDGTANDKEGSNEDTKNEKKQESATSANANANASSAGPSGLPWEQLQQTMSQFQQPSSQSPPQQQVTQTKEERSKADLSKESCKMFIGGLNWDTTEDNLREYFGKYGTVTDLKIMKDPATGRSRGFGFLSFEKPSSVDEVVKTQHILDGKVIDPKRAIPRDEQDKTGKIFVGGIGPDVRPKEFEEFFSQWGTIIDAQLMLDKDTGQSRGFGFVTYDSADAVDRVCQNKFIDFKDRKIEIKRAEPRHMQQKSSNNGGNNGGNNMNRRGGNFGNQGDFNQMYQNPMMGGYNPMMNPQAMTDYYQKMQEYYQQMQKQTGMDYTQMYQQQMQQMAMMMPGFAMPPNAMTLNQPQQDSNATQGSPAPSDSDNNKSNDVQTIGNTSNTDSGSPPLNLPNGPKGPSQYNDDHNSGYGYNRDRGDRDRNDRDRDYNHRSGGNHRRNGRGGRGGYNRRNNGYHPYNR
notes: Hrp1p, S. cerevisiae; also called full-length Hrp1p; source: E. coli BL21(DE3), immobilized on glutathione sepharose
- binding result (Kap104p [2]): binds

B3: MBP–Nab2p NLS 210GGG212/AAA (protein)
chain: DNSQRFTQRAAAAVGKNRRGGRGGNRGGRNNNSTRFNPLAKALGMAGESNM
- ddG (Kap104p [1]): -0.4 kcal/mol
- ratio to parent (Kap104p [1]): 0.5
- Kd (Kap104p [1]; parent: 37 ± 20): 19 nM
- other: TΔS (Kap104p [1]; parent: -1.3 ± 0.6): 0.5 kcal/mol
- dG (Kap104p [1]; parent: -10.0 ± 0.3): -10.4 kcal/mol
- other: ΔH (Kap104p [1]; parent: -11.3 ± 0.5): -9.8 kcal/mol
- Kd (Kap104p [3]): 19 nM

B4: MBP–Nab2p NLS 216KNRR219/AAAA (domain or fragment, S. cerevisiae, UniProt P32505 201-251, looked up)
chain: DNSQRFTQRGGGAVGAAAAGGRGGNRGGRNNNSTRFNPLAKALGMAGESNM
notes: Nab2p NLS, residues 201-251; source: E. coli BL21(DE3), purified (amylose resin, cation exchange)
- Kd (Kap104p, P38217 [4]): 109 nM
- fold decrease in affinity against wild type (Kap104p [5]): 3 fold

B5: MBP–Nab2p NLS 222RGG224 to alanines (domain or fragment, S. cerevisiae, UniProt P32505 201-251, looked up)
chain: B3 chain with A10G, A11G, A12G, R22A, G23A, G24A
notes: as for B4
- ddG (Kap104p, P38217 [4]): 0.3 kcal/mol
- ratio to parent (Kap104p, P38217 [4]): 1.6
- Kd (Kap104p, P38217 [4]): 58 nM
- other: TΔS (Kap104p, P38217 [4]): 0.06
- dG (Kap104p, P38217 [4]): -9.7 kcal/mol
- other: ΔH (Kap104p, P38217 [4]): -9.6 kcal/mol
- binding result (Kap104p [5]): binds

B6: MBP–Nab2p NLS 226RGGRN230 to alanines (domain or fragment, S. cerevisiae, UniProt P32505 201-251, looked up)
chain: DNSQRFTQRGGGAVGKNRRGGRGGNAAAAANNSTRFNPLAKALGMAGESNM
notes: as for B4
- ddG (Kap104p, P38217 [4]): 0.3 kcal/mol
- ratio to parent (Kap104p, P38217 [4]): 1.6
- Kd (Kap104p, P38217 [4]): 59 nM
- other: TΔS (Kap104p, P38217 [4]): -0.2
- dG (Kap104p, P38217 [4]): -9.7 kcal/mol
- other: ΔH (Kap104p, P38217 [4]): -9.9 kcal/mol
- binding result (Kap104p [5]): binds

B7: GST–Tfg2p, full-length (natural protein, S. cerevisiae, UniProt P41896 1-400, looked up)
chain: MSSGSAGAPALSNNSTNSVAKEKSGNISGDEYLSQEEEVFDGNDIENNETKVYEESLDLDLERSNRQVWLVRLPMFLAEKWRDRNNLHGQELGKIRINKDGSKITLLLNENDNDSIPHEYDLELTKKVVENEYVFTEQNLKKYQQRKKELEADPEKQRQAYLKKQEREEELKKKQQQQKRRNNRKKFNHRVMTDRDGRDRYIPYVKTIPKKTAIVGTVCHECQVMPSMNDPNYHKIVEQRRNIVKLNNKERITTLDETVGVTMSHTGMSMRSDNSNFLKVGREKAKSNIKSIRMPKKEILDYLFKLFDEYDYWSLKGLKERTRQPEAHLKECLDKVATLVKKGPYAFKYTLRPEYKKLKEEERKATLGELADEQTGSAGDNAQGDAEADLEDEIEMEDVV
notes: Tfg2p, S. cerevisiae; source: E. coli BL21(DE3), immobilized on glutathione sepharose
- binding result (Kap104p [2]): binds

B8: MBP–Hrp1p NLS 519RGGYN523/AAAAA (domain or fragment, S. cerevisiae, UniProt Q99383 494-534, looked up)
chain: RDRNDRDRDYNHRSGGNHRRNGRGGAAAAARRNNGYHPYNR
notes: Hrp1p NLS, residues 494-534; source: E. coli BL21(DE3), purified (amylose resin, cation exchange)
- ddG (Kap104p, P38217 [6]; chain shown with the change): -0.4 kcal/mol
- ratio to parent (Kap104p, P38217 [6]; chain shown with the change): 0.5
- other: TΔS (Kap104p, P38217 [6]; chain shown with the change;, parent: 0.09 ± 0.7): -3.8 kcal/mol/K
- Kd (Kap104p, P38217 [6]; chain shown with the change;, parent: 32 ± 16): 17 nM
- other: ΔH (Kap104p, P38217 [6]; chain shown with the change;, parent: -10.0 ± 0.5): -14.2 kcal/mol
- dG (Kap104p, P38217 [6]; chain shown with the change;, parent: -10.1 ± 0.3): -10.4 kcal/mol
- binding result (Kap104p [5]): binds

B9: MBP–Hrp1p NLS R512, R513, R516, R519/KKKK (domain or fragment, S. cerevisiae, UniProt Q99383 494-534, looked up)
chain: RDRNDRDRDYNHRSGGNHKKNGKGGKGGYNRRNNGYHPYNR
notes: Hrp1p NLS, residues 494-534; also called quadruple mutant (arginines to lysines); source: E. coli BL21(DE3), purified (amylose resin, cation exchange)
- Kd (Kap104p [7]): 36 nM
- binding result (Kap104p [5]): binds

Molecule: RDRNDRDRDYNHRSGGNHRRNGRGGRGGYNARNNGYHPYNR [MBP–Hrp1p NLS R524A]
- Kd (Kap104p [7]): 37 nM

Molecule: RDRNDRDRDYNHRSGGNHRRNGRGGRGGYNRANNGYHPYNR [MBP–Hrp1p NLS R525A]
- Kd (Kap104p [7]): 13 nM

Molecule: RDRNDRDRDYNHRSGGNHARNGRGGRGGYNRRNNGAHPYNR [MBP–Hrp1p NLS R512A, Y529A]
- Kd (Kap104p [7]): 60 nM

B10: MBP–Hrp1p NLS Y529A (domain or fragment, S. cerevisiae, UniProt Q99383 494-534, looked up)
chain: B9 chain with K19R, K20R, K23R, K26R, Y36A
notes: as for B8
- Kd (Kap104p [7]): 143 nM
- KD,mutant/KD,wild type (Kap104p [5]): 4

B11: MBP–Hrp1p NLS Y529L (domain or fragment, S. cerevisiae, UniProt Q99383 494-534, looked up)
chain: B9 chain with K19R, K20R, K23R, K26R, Y36L
notes: as for B8
- Kd (Kap104p [7]): 37 nM
- binding result (Kap104p [5]): binds

B12: MBP–Hrp1p NLS R512,R513,R516,R519/AAAA (domain or fragment, S. cerevisiae, UniProt Q99383 494-534, looked up)
chain: B9 chain with K19A, K20A, K23A, K26A
notes: Hrp1p NLS, residues 494-534; also called quadruple mutant (arginines to alanines); source: E. coli BL21(DE3), purified (amylose resin, cation exchange)
- Kd (Kap104p [7]): 194 nM
- fold decrease in binding against wild type (Kap104p [5]): 5 fold

Molecule: RDRNDRDRDYNHRSGGNHARNGRGGRGGYNAANNGYHPYNR [MBP–Hrp1p NLS R512A, 524RR525/AA]
- Kd (Kap104p [7]): 44 nM
